From paper PMC11999266, “Human glutathione transferases catalyze the reaction between glutathione and nitrooleic acid” (The Journal of Biological Chemistry, 2025)

B1: Human glutathione transferase A4-4 (hGST A4-4) (enzyme, UniProt O15217 1-222, looked up)
chain: MAARPKLHYPNGRGRMESVRWVLAAAGVEFDEEFLETKEQLYKLQDGNHLLFQQVPMVEIDGMKLVQTRSILHYIADKHNLFGKNLKERTLIDMYVEGTLDLLELLIMHPFLKPDDQQKEVVNMAQKAIIRYFPVFEKILRGHGQSFLVGNQLSLADVILLQTILALEEKIPNILSAFPFLQEYTVKLSNIPTIKRFLEPGSKKKPPPDEIYVRTVYNIFRP
notes: Human glutathione transferase A4 (alpha class), ORF of GenBank Y13047.1; Homodimer; Expressed as a C-terminal fusion to His-tagged Trx1 with a TEV site in between; the fusion partner was cut off; the printed mass (25,761 Da) may include such a remnant (surmise); source: E. coli BL21(DE3), pET-Trx1b, purified (GSH-Sepharose, TEV cleavage, HisTrap flow through, SEC); not shown: His tag, N-terminal, …
B2: Human glutathione transferase M1-1 (hGST M1-1) (enzyme, UniProt P09488 1-218, looked up)
chain: MPMILGYWDIRGLAHAIRLLLEYTDSSYEEKKYTMGDAPDYDRSQWLNEKFKLGLDFPNLPYLIDGAHKITQSNAILCYIARKHNLCGETEEEKIRVDILENQTMDNHMQLGMICYNPEFEKLKPKYLEELPEKLKLYSEFLGKRPWFAGNKITFVDFLVYDVLDLHRIFEPKCLDAFPNLKDFISRFEGLEKISAYMKSSRFLPRPVFSKMAVWGNK
notes: Human glutathione transferase M1 (mu class), ORF of GenBank X08020.1; purified without tags; Homodimer; In the crystal it carries the small-molecule adduct GS-10-NO2-OA in the active site; source: E. coli BL21(DE3), pET22b, purified (GSH-Sepharose, SEC)

Biological target: the molecule itself
Assay: SEC; HiLoad 16/600 Superdex 200, Tris buffer (50 mM, pH 8.0, 150 mM NaCl), calibrated with proteins of known mass; final purification step

| Protein | stoichiometry N |
| --- | --- |
| B1 | 2 |
| B2 | 2 |
